{"source": "patent US11345725B2", "about": "“Bis-thioether stapled peptides as inhibitors of PRC2 function” (Research Foundation of the City University of New York, priority 2019, dated 2022)", "note": "Starred links: 1 amine or outer side, 2 acyl side, 3 side chain; linkers in the order of their positions; H or OH if unused. Positions of bridges follow the written chain, without caps; N, C: chain ends. Residues, ends and D or L forms follow the SMILES beside them. Octanediyl(1,8) = C(CCCC[*:2])CCC[*:1]; X5 = C(CCC[*:1])CCC[*:2]; X6 = C(=C\\C[*:2])/C[*:1]; X4 = C(CCC[*:2])CC[*:1]; X2 = C(CC[*:1])CC[*:2]; X3 = C(CC[*:2])C[*:1]; X1 = C(C[*:1])C[*:2]"}
{"assay": "circular dichroism", "conditions": "deionized water; pH unbuffered; 20 °C; 25 uM", "units": {"helicity": "%"}}
{"molecule": "CC[C@H](C)[C@H](NC(=O)[C@H](CCC(N)=O)NC(=O)[C@@H](NC(=O)[C@@H]1CSCCCSC[C@H](NC(=O)[C@H](CC(C)C)NC(=O)[C@H](Cc2c[nH]c3ccccc23)NC(=O)[C@H](CCC(=O)O)NC(C)=O)C(=O)N[C@@H](CCC(=O)O)C(=O)N[C@@H](CCCCN)C(=O)N[C@@H]([C@@H](C)O)C(=O)N1)[C@@H](C)O)C(=O)N[C@@H](CCC(=O)O)C(=O)N[C@@H](CCC(=O)O)C(=O)N[C@@H](Cc1ccccc1)C(N)=O", "note": "(Ac-EWLCEKTCTQIEEF-NH2; linker 4-8 via X1)", "helicity": 38.4}
{"molecule": "CC[C@H](C)[C@H](NC(=O)[C@H](CCC(N)=O)NC(=O)[C@@H](NC(=O)[C@@H]1CSCCCCCSC[C@H](NC(=O)[C@H](CC(C)C)NC(=O)[C@H](Cc2c[nH]c3ccccc23)NC(=O)[C@H](CCC(=O)O)NC(C)=O)C(=O)N[C@@H](CCC(=O)O)C(=O)N[C@@H](CCCCN)C(=O)N[C@@H]([C@@H](C)O)C(=O)N1)[C@@H](C)O)C(=O)N[C@@H](CCC(=O)O)C(=O)N[C@@H](CCC(=O)O)C(=O)N[C@@H](Cc1ccccc1)C(N)=O", "note": "(Ac-EWLCEKTCTQIEEF-NH2; linker 4-8 via X2)", "helicity": 19.7}
{"molecule": "CC[C@H](C)[C@H](NC(=O)[C@H](CC(C)C)NC(=O)[C@H](Cc1ccccc1)NC(=O)[C@H](CC(=O)O)NC(=O)[C@H](Cc1c[nH]cn1)NC(=O)[C@H](CCSC)NC(=O)[C@H](CO)NC(=O)[C@@H](NC(=O)[C@@H]1CSCCCCCSC[C@H](NC(=O)[C@H](CC(N)=O)NC(=O)[C@H](CCCNC(=N)N)NC(=O)[C@H](CS)NC(=O)[C@H](CC(C)C)NC(C)=O)C(=O)N[C@@H](CCSC)C(=O)N[C@@H](CC(C)C)C(=O)N[C@@H](Cc2c[nH]cn2)C(=O)N1)C(C)C)C(N)=O", "note": "(Ac-LCRNCMLHCVSMHDFLI-NH2; linker 5-9 via X2)", "helicity": 61.6}
{"molecule": "CC[C@H](C)[C@@H]1NC(=O)[C@@H](NC(=O)[C@H](CC(=O)O)NC(=O)[C@@H](NC(=O)[C@@H](NC(C)=O)[C@@H](C)O)C(C)C)CSCCCSC[C@@H](C(=O)N[C@@H](CC(C)C)C(=O)N[C@@H](CO)C(=O)N[C@H](C(=O)N[C@@H](CC(C)C)C(=O)N[C@@H](C)C(=O)N[C@@H](CCC(=O)O)C(=O)N[C@@H](CCC(=O)O)C(=O)N[C@H](C(=O)N2CCC[C@H]2C(=O)N[C@@H](CCC(N)=O)C(=O)N[C@@H](CC(N)=O)C(N)=O)C(C)C)C(C)C)NC(=O)[C@H](CO)NC(=O)[C@H](C)NC1=O", "note": "(Ac-TVDCIASCLSVLAEEVPQN-NH2; linker 4-8 via X1)", "helicity": 23}
{"molecule": "CC[C@H](C)[C@@H]1NC(=O)[C@@H](NC(=O)[C@H](CC(=O)O)NC(=O)[C@@H](NC(=O)[C@@H](NC(C)=O)[C@@H](C)O)C(C)C)CSCCCCCSC[C@@H](C(=O)N[C@@H](CC(C)C)C(=O)N[C@@H](CO)C(=O)N[C@H](C(=O)N[C@@H](CC(C)C)C(=O)N[C@@H](C)C(=O)N[C@@H](CCC(=O)O)C(=O)N[C@@H](CCC(=O)O)C(=O)N[C@H](C(=O)N2CCC[C@H]2C(=O)N[C@@H](CCC(N)=O)C(=O)N[C@@H](CC(N)=O)C(N)=O)C(C)C)C(C)C)NC(=O)[C@H](CO)NC(=O)[C@H](C)NC1=O", "note": "(Ac-TVDCIASCLSVLAEEVPQN-NH2; linker 4-8 via X2)", "helicity": 9}
{"molecule": "CC[C@H](C)[C@H](NC(=O)[C@H](CCCCN)NC(=O)[C@H](CC(=O)O)NC(=O)[C@@H](NC(=O)[C@@H](NC(C)=O)[C@@H](C)O)C(C)C)C(=O)N[C@@H](C)C(=O)N[C@@H](CO)C(=O)N[C@@H](C)C(=O)N[C@H]1CSCCCCCCCCSC[C@@H](C(=O)N2CCC[C@H]2C(=O)N[C@@H](CCC(N)=O)C(=O)N[C@@H](CC(N)=O)C(N)=O)NC(=O)[C@H](CCC(=O)O)NC(=O)[C@H](CCC(=O)O)NC(=O)[C@H](C)NC(=O)[C@H](CC(C)C)NC(=O)[C@H](C(C)C)NC(=O)[C@H](CO)NC1=O", "note": "(Ac-TVDKIASACSVLAEECPQN-NH2; linker 9-16 via Octanediyl(1,8))", "helicity": 12.1}
{"molecule": "CC[C@H](C)[C@H](NC(=O)[C@H](CCCCN)NC(=O)[C@H](CC(=O)O)NC(=O)[C@@H](NC(=O)[C@@H](NC(C)=O)[C@@H](C)O)C(C)C)C(=O)N[C@@H](C)C(=O)N[C@@H](CO)C(=O)N[C@@H](C)C(=O)N[C@H]1CSCCCCCCSC[C@@H](C(=O)N2CCC[C@H]2C(=O)N[C@@H](CCC(N)=O)C(=O)N[C@@H](CC(N)=O)C(N)=O)NC(=O)[C@H](CCC(=O)O)NC(=O)[C@H](CCC(=O)O)NC(=O)[C@H](C)NC(=O)[C@H](CC(C)C)NC(=O)[C@H](C(C)C)NC(=O)[C@H](CO)NC1=O", "note": "(Ac-TVDKIASACSVLAEECPQN-NH2; linker 9-16 via X4)", "helicity": 8.7}
{"molecule": "CC[C@H](C)[C@H](NC(=O)[C@H](CCCCN)NC(=O)[C@H](CC(=O)O)NC(=O)[C@@H](NC(=O)[C@@H](NC(C)=O)[C@@H](C)O)C(C)C)C(=O)N[C@@H](C)C(=O)N[C@@H](CO)C(=O)N[C@@H](C)C(=O)N[C@H]1CSCCCCCCCSC[C@@H](C(=O)N2CCC[C@H]2C(=O)N[C@@H](CCC(N)=O)C(=O)N[C@@H](CC(N)=O)C(N)=O)NC(=O)[C@H](CCC(=O)O)NC(=O)[C@H](CCC(=O)O)NC(=O)[C@H](C)NC(=O)[C@H](CC(C)C)NC(=O)[C@H](C(C)C)NC(=O)[C@H](CO)NC1=O", "note": "(Ac-TVDKIASACSVLAEECPQN-NH2; linker 9-16 via X5)", "helicity": 13.7}
{"molecule": "CC[C@H](C)[C@H](NC(=O)[C@@H]1CSCCCSC[C@H](NC(=O)[C@@H](NC(=O)[C@@H](NC(C)=O)C(C)C)[C@@H](C)CC)C(=O)N[C@@H](CCC(=O)O)C(=O)N[C@@H](CCC(=O)O)C(=O)N[C@@H](Cc2ccc(O)cc2)C(=O)N1)C(=O)N[C@@H](Cc1c[nH]c2ccccc12)C(=O)N[C@@H](CCCCN)C(=O)N[C@@H](CCCCN)C(=O)N[C@@H](CC(N)=O)C(=O)N[C@H](C(=O)N1CCC[C@H]1C(=O)N[C@@H](Cc1ccccc1)C(=O)N[C@@H](CC(C)C)C(N)=O)[C@@H](C)O", "note": "(Ac-VICEEYCIWKKNTPFL-NH2; linker 3-7 via X1)", "helicity": 12.7}
{"molecule": "CC[C@H](C)[C@H](NC(=O)[C@@H]1CSCCCCCSC[C@H](NC(=O)[C@@H](NC(=O)[C@@H](NC(C)=O)C(C)C)[C@@H](C)CC)C(=O)N[C@@H](CCC(=O)O)C(=O)N[C@@H](CCC(=O)O)C(=O)N[C@@H](Cc2ccc(O)cc2)C(=O)N1)C(=O)N[C@@H](Cc1c[nH]c2ccccc12)C(=O)N[C@@H](CCCCN)C(=O)N[C@@H](CCCCN)C(=O)N[C@@H](CC(N)=O)C(=O)N[C@H](C(=O)N1CCC[C@H]1C(=O)N[C@@H](Cc1ccccc1)C(=O)N[C@@H](CC(C)C)C(N)=O)[C@@H](C)O", "note": "(Ac-VICEEYCIWKKNTPFL-NH2; linker 3-7 via X2)", "helicity": 11}
{"molecule": "CC[C@H](C)[C@H](NC(=O)[C@@H]1CSCCCCSC[C@H](NC(=O)[C@@H](NC(=O)[C@@H](NC(C)=O)C(C)C)[C@@H](C)CC)C(=O)N[C@@H](CCC(=O)O)C(=O)N[C@@H](CCC(=O)O)C(=O)N[C@@H](Cc2ccc(O)cc2)C(=O)N1)C(=O)N[C@@H](Cc1c[nH]c2ccccc12)C(=O)N[C@@H](CCCCN)C(=O)N[C@@H](CCCCN)C(=O)N[C@@H](CC(N)=O)C(=O)N[C@H](C(=O)N1CCC[C@H]1C(=O)N[C@@H](Cc1ccccc1)C(=O)N[C@@H](CC(C)C)C(N)=O)[C@@H](C)O", "note": "(Ac-VICEEYCIWKKNTPFL-NH2; linker 3-7 via X3)", "helicity": 11.5}
{"molecule": "CC[C@H](C)[C@H](NC(=O)[C@@H]1CSCCCCCCSC[C@H](NC(=O)[C@@H](NC(=O)[C@@H](NC(C)=O)C(C)C)[C@@H](C)CC)C(=O)N[C@@H](CCC(=O)O)C(=O)N[C@@H](CCC(=O)O)C(=O)N[C@@H](Cc2ccc(O)cc2)C(=O)N1)C(=O)N[C@@H](Cc1c[nH]c2ccccc12)C(=O)N[C@@H](CCCCN)C(=O)N[C@@H](CCCCN)C(=O)N[C@@H](CC(N)=O)C(=O)N[C@H](C(=O)N1CCC[C@H]1C(=O)N[C@@H](Cc1ccccc1)C(=O)N[C@@H](CC(C)C)C(N)=O)[C@@H](C)O", "note": "(Ac-VICEEYCIWKKNTPFL-NH2; linker 3-7 via X4)", "helicity": 19.4}
{"molecule": "CC[C@H](C)[C@H](NC(=O)[C@@H]1CSC/C=C/CSC[C@H](NC(=O)[C@@H](NC(=O)[C@@H](NC(C)=O)C(C)C)[C@@H](C)CC)C(=O)N[C@@H](CCC(=O)O)C(=O)N[C@@H](CCC(=O)O)C(=O)N[C@@H](Cc2ccc(O)cc2)C(=O)N1)C(=O)N[C@@H](Cc1c[nH]c2ccccc12)C(=O)N[C@@H](CCCCN)C(=O)N[C@@H](CCCCN)C(=O)N[C@@H](CC(N)=O)C(=O)N[C@H](C(=O)N1CCC[C@H]1C(=O)N[C@@H](Cc1ccccc1)C(=O)N[C@@H](CC(C)C)C(N)=O)[C@@H](C)O", "note": "(Ac-VICEEYCIWKKNTPFL-NH2; linker 3-7 via X6)", "helicity": 19}
{"molecule": "CC[C@H](C)[C@@H]1NC(=O)[C@@H](NC(=O)[C@H](Cc2ccc(O)cc2)NC(=O)[C@H](CCC(=O)O)NC(=O)[C@H](CCC(=O)O)NC(=O)[C@H](CC(N)=O)NC(=O)[C@@H](NC(=O)[C@@H](NC(C)=O)C(C)C)[C@@H](C)CC)CSCCCSC[C@@H](C(=O)N[C@@H](CC(N)=O)C(=O)N[C@H](C(=O)N2CCC[C@H]2C(=O)N[C@@H](Cc2ccccc2)C(=O)N[C@@H](CC(C)C)C(N)=O)[C@@H](C)O)NC(=O)[C@H](CCCCN)NC(=O)[C@H](Cc2c[nH]c3ccccc23)NC1=O", "note": "(Ac-VINEEYCIWKCNTPFL-NH2; linker 7-11 via X1)", "helicity": 18.4}
{"molecule": "CC[C@H](C)[C@@H]1NC(=O)[C@@H](NC(=O)[C@H](Cc2ccc(O)cc2)NC(=O)[C@H](CCC(=O)O)NC(=O)[C@H](CCC(=O)O)NC(=O)[C@H](CC(N)=O)NC(=O)[C@@H](NC(=O)[C@@H](NC(C)=O)C(C)C)[C@@H](C)CC)CSCCCCCSC[C@@H](C(=O)N[C@@H](CC(N)=O)C(=O)N[C@H](C(=O)N2CCC[C@H]2C(=O)N[C@@H](Cc2ccccc2)C(=O)N[C@@H](CC(C)C)C(N)=O)[C@@H](C)O)NC(=O)[C@H](CCCCN)NC(=O)[C@H](Cc2c[nH]c3ccccc23)NC1=O", "note": "(Ac-VINEEYCIWKCNTPFL-NH2; linker 7-11 via X2)", "helicity": 5.68}
{"molecule": "CC[C@H](C)[C@@H]1NC(=O)[C@@H](NC(=O)[C@H](Cc2ccc(O)cc2)NC(=O)[C@H](CCC(=O)O)NC(=O)[C@H](CCC(=O)O)NC(=O)[C@H](CC(N)=O)NC(=O)[C@@H](NC(=O)[C@@H](NC(C)=O)C(C)C)[C@@H](C)CC)CSCCCCSC[C@@H](C(=O)N[C@@H](CC(N)=O)C(=O)N[C@H](C(=O)N2CCC[C@H]2C(=O)N[C@@H](Cc2ccccc2)C(=O)N[C@@H](CC(C)C)C(N)=O)[C@@H](C)O)NC(=O)[C@H](CCCCN)NC(=O)[C@H](Cc2c[nH]c3ccccc23)NC1=O", "note": "(Ac-VINEEYCIWKCNTPFL-NH2; linker 7-11 via X3)", "helicity": 16.5}
